A protein production outcome set (Wang et al. 2014)

Assay: label from the status in PepcDB records

| Sequence | protein production |
| --- | --- |
| MLTVDQLALLFVLLLGAVVSVPVGDRFGLPAPVLMTLLGIGLAVADFVPNVDIPPDLILPALLPPLLYAAVRRTSWRQFTANKRPIFLLAVALVFVTTAVVALVAGAIVPGLPIAAAVALGALVAPPDPVAATAVAGQLGLPRRLVSILEGEGLFNDVTAIVLYHVAIAAAVSGTFSLPNAVLDLVLSAVVAVAVGLALGWAANRLMDLLDDVTLQIGLTLLVPYASYVLAEELHGSGVLAVLTTALFLAEYATDADDVMTRLAGHTFWNVVDTLVTGVAFGLIGLELHNALRTASGRWGEMLGWAAAIVAVVVLVRLAYLLPATWLTKRLHAKRDYDEEIPTSWRETVVMWWAGMRGVASAALALAIPLKMDDGSPFPDRDEIVFIAFGVIMGTLVLQGLTLPWLVKRLGVRADTGSEKAFEKALAIRAAKAAKRRLREIEDVEELPEELSEQLLRRAFDIGARISPDLGDEERREAHEQRVRRMKRVRRIQGEMMSAARHEVLAARSEPGADPEIVDRVLRHLDVRSLR | failed |
| MVAEITAPKSMGKVLGYNFSKVTAGNASVILTSSMSVDANGETNFERALTDMDMRIPSGIRTKKTVFHCSLNPHPDDRLTTEQLQDIAREYMEKMGYGKQPYIVFKHNDIAREHIHIVSLRVDSYGKKLPYKFEARRSKRITDELERKYGLIPSGNRRSRHETHAENVLKTADVKQGDVRRQIAAVVRAVLKRYAFRSLGEMNLLLARYHIVAEEVRKEYKGKRYDGLVYAITDDAGEKRMIPLHAGKIGRGTGYAAVVRHFEKSKALIKEKAPMLRNAIIEVMQSSPDKERFSEEMKKRGIDVHIRQNEQGRIYGITFISDEAGIAANGSRLGKGYSAHVFNDYFLGG | not failed |
| MTQVRETVSFKAGDVILYPGVPGPRDRAYRVLEGLVRLEAVDEEGNALTLRLVRPGGFFGEEALFGQERIYFAEAATDVRLEPLPENPDPELLKDLAQHLSQGLAEAYRRIERLATQRLKNRMAAALLELSETPLAHEEEGKVVLKATHDELAAAVGSVRETVTKVIGELAREGYIRSGYGKIQLLDLKGLKELAESRGQGR | not failed |
| MDKYPFLREAGSSFKDRDVTKMSDLIATWDGQDIKGPALIGVPLSKSSISHSGASFAPGTIRQALKHSSAYSAELGEHVVSELLYDLGDIDIHVTDIVKSHHHIFQTMHALLSDHPDWVPLILGGDNSISYSTIKAIAQTKGTTAVIQFDAHHDVRNTEDGGPTNGTPFRRLLDEEIIEGQHLIQLGIREFSNSQAYEAYAKKHNVNIHTMDMIREKGLIPTIKEILPVVQDKTDFIFISVDMDVLDQSHAPGCPAIGPGGLYTDELLEAVKYIAQQPNVAGIEIVEVDPTLDFRDMTSRAAAHVLLHALKGMKLSPFK | not failed |
| MASQITGSFTSLTKLITAGSYLAGLGFSIGAIMKFKQHKDNPTQIPIGTPIALIFIAAALLFLPSILGVAGVTMFGGSGGKTAGPTGTIYKTN | failed |
| MELGSVATFSLYPDLYARFRPSYPEELYDWLLPLCPGRQRAWDCATGSGQTAVRLGESFSRVDATDISSSQLSAAEPHTQVYYRECPAEVTPFDDDCFDLICVSQALHWFHLPSFWPEMQRVLKPGGIFAAWGYHHCVVSPEVDRACSVLWSIIEPFWSSRCQLLWDDFRGSGCPLPLLKAPSFTISSDWALDHFLGFLNTTSASKLCKQALGESILDDACQRITRAWGPRNQVRRVDLPLHLMVARKDDAGGYAG | failed |
| MAEEVRQELSALAAIFCGPNEWEMLSCSETDGAVFRIHTTAEGLVGEDVPLELAFHLPVGYPLCLPGISVTSEHLTRAQCVTAKEKLLGEARKLVSEPMVHELVLWIQQNLRLVLSQPETVSSHEKCTLPESATGDDGPWMTLLRLDHMRARTKYVKAVEKWASELRLTGRLMFMGKLILILLQGDRSNIKEYLILQKTSKVDVDSSGKKCKEKMISVLSETKVQTEHKRFLAFEVKEYSTLEELQKEFGAAGLGELFSECVLGLVK | failed |
| MLMEVKALAHAKNDSVAVATDDLKEGEEIQVAFLDNNEKTKITTAEVIPLGHKISLKDIKKGENVIEYGEVIGAATKDIKRGEHVHIHNIKSLRW | not failed |
| MLQRTLSSIQIIGGVTQALFILSICLASINPPTEFTMRRTMAMSMRKYSSHSTPRMARIPTTFVVIVLRPTILSGSVGPVITLYIAIKAVPRSTQTPATKTFS | failed |
| MKRVFVFQDFKSQKFWSIDVRGTDVIVNYGKLGTDGQTQVKNFSSAGEAEKAAGKLIAEKTKKGYVETLEEVAKEMKVEAKKYALSYDEAEEGVNLMDKILKDKKLPSLKQITIGCWGYEGEDCSDIADGIVENKEKFAHFEGLFWGDIDFEEQEISWIEQVDLSPVLDAMPLLNNLKIKGTNNLSIGKKPRPNLKSLEIISGGLPDSVVEDILGSDLPNLEKLVLYVGVEDYGFDGDMNVFRPLFSKDRFPNLKWLGIVDAEEQNVVVEMFLESDILPQLETMDISAGVLTDEGARLLLDHVDKIKHLKFINMKYNYLSDEMKKELQKSLPMKIDVSDSQEYDDDYSYPMITELEHHHHHH | not failed |
| TLDAPLQRRMEDLLMGWRARLPERTSAAILVVEAENMAVRAYVGSVDISDVKRFGHVDMVTALRSPGSTLKPFLYGMAMDAGLIHSESLMQDVPRRYGDYRPGNFSTGFGGPVAASSALSMSLNLPAVQLLEVYGPKRFAAELRNGGVPLTLPPLAEPNLALILGGAGSRLEDLVAGYSAFARGGRSADVRLQPQDRLRERRMMSPGAAWIIRRILSGQSRPDIDPRAELVQRPQLAWKTGTSYGFRDAWAIGVGPRFLVGVWIGRPDGTPVPGQFGLASAAPLMLQVHDVLVNRDSQRGI | failed |
| MDAIRIVLKNISQVLLLNNAWTGLFILLGLFIGSWKVGVMALIASVIALLLAKRTNYSEEEINTGLSGFNPVLTAIALTLFLVPKWYSLIIILVAIIITMPIGSAFREFFKPFGVPMLTMPYVFVSWLILLMSFQFKFVNADVNILPNAIQEIQFSGHHIQFINAFLSGFSEIFLLKSVLAGTLILIGIFIASRKAGVYAIVANLIGFLAVIVLGANHDQINEGLFGYNVILTVLALGIAFRTRIQRPISIVLGILLTVVIHAGMTTLLTPYGLPVFTLPFIIATWIMLFAGNQMKAQEI | failed |
| MKRKIIVACGGAVATSTMAAEEIKELCQSHNIPVELIQCRVNEIETYMDGVHLICTTARVDRSFGDIPLVHGMPFVSGVGIEALQNKILTILQG | not failed |
| NANDQAIAYVMLGNKAQTVLNGNLKVDFMETENSSSVKKQKALVAKVSQREEMVKKCLGELTEVCKSLGKVFGVHYFNIFNTVTLKKLAESLSSDPEVLLQIDGVTEDKLEKYGAEVISVLQKYSEWTSPAED | failed |
| NANLDPKTRVLEHRLLAASSAIAEKLGVSAGDEVLLIRRLRSTGDIPVAILENYLPPAFNDVSLDELEKGGLYDALRSRGVVLKIANQKIGARRAVGEESTLLDIEDGGPLLTVERVALDNSGQVIELGSHCYRPDMYN | failed |
| MSWLLVIAAGFLEVVWASGLKHADSFVDWLMIFVLIAVSFIMLIRSYRNIPMASAYTVFVGIGTAGTYVTGIFMGETFSGGQIFFLIVLLGGIIGMKMFTKENNAQSGGDE | failed |
| MRDPVSRLPNREQFQSDLYDLADENPGERRVLVLVDAVDMTVAHELTLAMGLAPFETIVRFLAQQLLAYLGRHVRVYHVSVKRFGFLLPAAPGIERFLESLVRRLRRQPPGLELPMIPGVCAGTVEFSTDRDAVPDVLRKAMFALELATLNRSTWAPYDVVRLEHHHHHH | failed |
| MKRGEELPPLEIEVTRTLIVAGAIASRDYQDVHHDAESARRRGSPDIFMNILTTNGLVGRYITDHFGPGAVLRKVAIRLGAPNYPGDTMVLTGTVVEVEGDTATVKVIGANGIGTHVRGTVTVTVPPGSASLEHHHHHH | failed |
| MERDLAGRIVALVSPTGLRTSYSYDACGRMVDVTDPAGRVTRYSYTSDFQVATVTYPTGETARYEYDAMGRVVLSHVPGAGVSQYRYDPCGRLVFSCDLVYGQRHFSYDLAGQLVAATNPAGGVSRYGYDRCGRLVTRTDPGGGLTTYQYNECGQMIAATDPLGRVTEYTWDKSGTLAAITRPDGTVVSRRLGPKGVEEYIDDQLVSRILITPTTRTVTIDDYTDPAFPWRHLLGYDPRGLLLTHSVAPVPGDESIVDEGPLTSSEQWWYDAEGRRVRHLTLTGDSIDYAYTNTGVLGSIRHSRLGEVSLEWDAVGRLAKLGSPLDQQQWGYTDGFVTSHTSSRGSTTISRDEMGRVLRVSAPYGDFRYGYDDSGSLTSADGLDGSSRRWVYDTAGRLVTTTCQDAGTSQTCHYDYDLAGELVSTVTQLGPGDSTVETHYRYDPCGRRIEAASSAGMREEFRWDSRGWLAGVMTFRAGRSHEFATHVDAFGCLTDVSGPAGRTPIAWDLATGEPQLVQVGGIPALPLPDGSVLTPVSADSDQDEPWRRPATDPLDPYTLIQEHLTAGISMTGGHLGVAGLAWMGARVYDSTTASFLTIDPLAAPPGSLWEAASYGYAATNPLALADPLGLRPVTDAQMRQFASTIDTRNLWDRHIRNVFSWETLGGVALATAGGLLMCFGAEVPGAMLIGAGGDMVFQQVVRGHVDYGEVALSGALAPTGGSGLSEIAGLGTRTLLTRGIEAGTTQGYVMGNYHWVTSPGPHNAETYLEQVGGETLSGAAFGGITATIGGKTYDALPDSIPTGHFGPHNTILRVGKQPETFIRKYQRNGKLDFGQATSFRGATFKSKIAIKPITTYRSWSDPDYEVGGYVSRTRPAGPLQTQLDLALAPQWGNKANHISEYEIPQFAPFYEGAAGVQPVKAIEDSDTLGQLPGGGNQILITDKQVLDRWKSKK | failed |
| KSPGWMKHLDQEQAVHSESETYGISSWVYSARLPFHPQRFQHFLAHPWTNGTLLRCKGYIWNAKCYQDIGMLVQTGGQFEWEIVGRWWNFINQSDWPQDHYRRDSIFEKWDERTGDCRQEIVFIGQNIDWNTLKHQLDDCLLTLQEIEDGPEAWLNY | failed |
| MAKLHIPVMVDEVVHCLSPQKGQIFLDMTFGSGGHTKAILQKESDIVLYALDRDPTAYALAEHLSELYPKQIRAMLGQFSQAEALLMKAGVQPGTFDGVLMDLGCSSMQLDTPERGFSLRKDGSLDMRMDGGRSTGTCIYPKNIRGGEACQENRFSNCSGTQHLPHHQNPAACQHRCRSISSLCYLYTERLTTAIYPYCHQDFPGSSHICEQ | failed |
| MKRQYYIGISLFITIIILVLDQITKFIIASSMKVGDSFEVIPNFLNITSHRNDGAAWGILSGKMSFFFIITIIILVVLIVFYIKEAKNNLLMQIAISLLFAGALGNFIDRVLHGEVVDFVDTYIFGYNFPIFNVADSSLTIGVLLIIIALLTDMKKEE | failed |
| MTPLLTAYLQAWKQYFDFSGQTTRDDFWWFMLAHLLITLVVVSIEIATNNPGWLDLFYSLISFIPMLAILVRRLHDTQRSGWWAWLFVIPVIGPFWLIYLLVQPSSSHFTDKALLS | failed |
| GRKYLVNFSDIYYIESVDKKTFVYLADEIYQTDLRLYQLLHDLQHDGFVQISKSCLLNINVLENIRPLFNSRMEATLLNGERVIVNRRYLPDVKEALKGIQ | failed |
| MGLCVSVNRNEYVSSSTTAKIVTINGDLREYDVPVLASQVLESESTSSSSSSSSSSYFLCNSDSLYYDDFIPAIESDEILQANQIYFVLPISKRQYRLSASDMAALAVKASVAIEKAAGKKNRRRRSGRISPVVTLNQANDNRIAAVNNRIGGEATNMMMQKGKLPNRTTPFKDTNGYSRSGSVRKLKRYTSGRAKLAVRSFRLRLSTIYEGSSFN | failed |
| MRIGVIGTGTIATAVVHGIAGDGHAITVSERSAANAQALAAAYPNVRVASNQVVVEECDILTLGLMAEQAPEILGPLPFRADQQVITLMAGATLEQVAQMVAPARAAAIMMPFPSIAQGGSPIMMQGDADLVAALFGARNRIFAVRDAAEMAAYLCAQAVLSPVARMVDDAAGWLATRVSDPVQGEAFLRALVASSLADTDSASLIEALNTPGGYNQRLRLHMEGAGMGDSLRAGLDALETGA | failed |
